A word on the Kd: it is a measure of binding affinity in units of concentration. Read a high Kd as a looser complex. Broadly, the koff is the rate constant with which the complex falls apart. In general, kon refers to a measure of how fast the partners come together.

The results in this text go back to PMC12860359, “Selection and optimization strategy for Rap1-targeting single-domain antibodies as platelet activation markers” (Research and Practice in Thrombosis and Haemostasis, 2025).

Substitutions are numbered along the chain they refer to.

Assay [1] has as its target T1, VHH-hFcS A47.
T1 construct: VHH A47; Bivalent VHH-Fc; also called VHH-FcS A47; VHH-Fc silent A47; source: HEK293, transfected (pHLSec), serum-free medium, purified
The assay is described as follows: BLI; OCTET R2; VHH-hFcS (2.5 μg/mL) on protein A biosensors; Rap1B loaded with GTPγS in solution at 0.04, 0.13, 0.4, 1.2 μM; 20 mM Tris-HCl pH 7.4, 0.1% BSA, 200 mM NaCl, 2 mM EDTA, 10 mM MgCl2; 25 °C; 1:1 fit. The following applies: both partners purified. On the technique in general: BLI is a label-free optical method that tracks binding on a fibre tip over time.

For assay [2], the target named is T2, VHH-hFcS B89.
T2 construct: as the VHH of m19 (A47); Bivalent VHH-Fc; Some immunoprecipitations name only 'VHH-Fc B89' without the kind of Fc; also called VHH-Fc B89; source: HEK293, transfected (pHLSec), serum-free medium, purified
The description is as above. The following applies: both partners purified.

Assay [3] concerns the target T2, VHH-hFcS B89. Briefly: co-IP; immunoprecipitation: VHH-Fc (1-2 μg) on Protein A/G magnetic beads incubated overnight at 4 °C with human platelet lysates (~200 μg protein) loaded with GTPγS or from platelets stimulated with TRAP or ADP; Rap1 western blot. The following applies: one partner purified. In general terms: A western blot detects proteins with antibodies after separation by electrophoresis.

Assay [4] addresses T3, VHH-Fc A64 (immunoprecipitation).
T3 construct: VHH A64; source: HEK293, transfected; 2 μg used
The assay is described as above. The following applies: one partner purified.

For assay [5], the target named is T1, VHH-hFcS A47. The assay is described as follows: ELISA; VHH-FcS (1.25 μg/mL) captured on goat antihuman Fc (Fab')2-coated plates; human platelet lysates (6 × 10^6 platelets/well) loaded with GTPγS, or PRP before and after stimulation with TRAP or ADP; detection with anti-Rap1 monoclonal (Abcam) or polyclonal (Merck) antibody. The following applies: one partner purified. In general terms: ELISA stands for enzyme-linked immunosorbent assay.

Assay [6] addresses T4, VHH-hFcS B14.
T4 construct: as the VHH of m19 (A47); Bivalent VHH-Fc; also called VHH-Fc B14; source: HEK293, transfected (pHLSec), serum-free medium, purified
Described as above. The following applies: one partner purified.

Assay [7] deals with T5, LexA-Rap1B G12V (Homo sapiens, G12V).
T5 chain: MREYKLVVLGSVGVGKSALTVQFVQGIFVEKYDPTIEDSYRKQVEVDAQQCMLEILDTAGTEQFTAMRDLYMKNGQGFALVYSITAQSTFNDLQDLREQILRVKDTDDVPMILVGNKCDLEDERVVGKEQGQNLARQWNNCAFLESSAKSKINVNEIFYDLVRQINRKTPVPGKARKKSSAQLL

B1: MBP-HA Rap1B WT (natural protein, human, UniProt P61224-1 1-184, looked up)
chain: T5 chain with V12G
notes: loaded with GTPγS or GDP before the assays; this is the only recombinant wild-type Rap1B it describes; also called human Rap1B; recombinant Rap1B; source: E. coli BL21DE3, purified (amylose resin); not shown: MBP, N-terminal, kept; HA, N-terminal, kept
B1 came in with a Kd in assay [1] of 17.2 nM. In assay [2], this molecule showed a Kd of 4.4 nM, a koff of 0.000513 s⁻¹ and a kon of 166000 M⁻¹ s⁻¹.

B2: Rap1 of human platelets (natural protein, human (endogenous in platelets), UniProt P61224 1-184, looked up)
chain: MREYKLVVLGSGGVGKSALTVQFVQGIFVEKYDPTIEDSYRKQVEVDAQQCMLEILDTAGTEQFTAMRDLYMKNGQGFALVYSITAQSTFNDLQDLREQILRVKDTDDVPMILVGNKCDLEDERVVGKEQGQNLARQWNNCAFLESSAKSKINVNEIFYDLVRQINRKTPVPGKARKKSSC
notes: also called active Rap1; source: endogenous, human platelet lysate
B2: the binding result in assay [3], in assay [4], in assay [5] and in assay [6] was “binds” in each case.

B3: A145 (VHH)
VHH: EVQLQASGGGFVQPGGSLRLSCAASGATWKHEIMGWFRQAPGKEREFVSAISSQPGLWDYYADSVKGRFTISRDNSKNTVYLQMNSLRAEDTATYYCATPGQRMIEYWGQGTQVTVSS
Consider B3, for which the binding result in assay [7] is listed as “binds”.

B4: A141 (VHH)
VHH: EVQLQASGGGFVQPGGSLRLSCAASGATSKLSAMGWFRQAPGKEREFVSAISAQNDFWTYYADSVKGRFTISRDNSKNTVYLQMNSLRAEDTATYYCAHHFPSTAKSYWGQGTQVTVSS
As to B4, in assay [7], the binding result is reported as “binds”.
